From US20180334499A1 (Pieris, published 2018)

T1: recombinant human Ang-2 (human, UniProt O15123 19-496, limits assumed)
T1 construct: also called hAng-2; human angiopoietin-2
T1 sequence (looked up): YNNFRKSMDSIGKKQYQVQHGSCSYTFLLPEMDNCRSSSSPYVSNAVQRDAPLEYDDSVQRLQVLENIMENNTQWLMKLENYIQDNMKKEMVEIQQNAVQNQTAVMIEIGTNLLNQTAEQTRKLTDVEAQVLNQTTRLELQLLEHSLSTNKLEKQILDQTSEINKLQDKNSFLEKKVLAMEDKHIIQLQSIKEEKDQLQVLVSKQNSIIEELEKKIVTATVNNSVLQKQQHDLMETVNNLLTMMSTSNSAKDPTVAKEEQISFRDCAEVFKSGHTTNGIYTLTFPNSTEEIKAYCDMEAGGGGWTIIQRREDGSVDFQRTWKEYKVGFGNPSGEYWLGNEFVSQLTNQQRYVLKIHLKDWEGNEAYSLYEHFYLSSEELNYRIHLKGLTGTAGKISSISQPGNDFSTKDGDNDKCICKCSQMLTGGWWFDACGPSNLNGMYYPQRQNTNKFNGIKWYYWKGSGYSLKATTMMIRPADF


Target: T1, recombinant human Ang-2
Experiment: ELISA, recombinant human Ang-2 coated, detection with anti-human IgG Fc-HRP or anti-lipocalin-HRP, signal normalised (RU %)
Procedure: Bound agents under study were detected via an anti-human-IgG-Fc antibody or anti-lipocalin antibody as described in Example 3. The data was fit with a 1:1 binding model with EC50 value and the maximum signal as free parameters, and a slope that was fixed to unity.
The target was dissolved in PBS (5 μg/mL) and coated overnight on microtiter plates at 4° C. The plate was washed after each incubation step with 80 μL PBS-T five times. The plates were blocked with 2% BSA (w/v) in PBS for 1 h at room temperature and subsequently washed. […] Bound agents under study were detected after incubation for 1 h at room temperature with 1:1000 diluted anti-lipocalin antibody conjugated to HRP in PBS-T or 1:5000 diluted anti-human IgG Fc-HRP (#109-035-098, Jackson […]) in PBS-T. After an additional wash step, fluorogenic HRP substrate (QuantaBlu, Thermo) was added to each well and the fluorescence intensity was detected using a fluorescence microplate reader.

Row | binding result | EC50 (read off the curve) [nM] | Binder
1 | no binding (tested: 100 nM) |  | SEQ ID NO: 1 negative control (other, Lipocalin negative control; also called mature hNGAL) QDSTSDLIPAPPLSKVPLQQNFQDNQFQGKWYVVGLAGNAILREDKDPQKMYATIYELKEDKSYNVTSVLFRKKKCDYWIRTFVPGCQPGEFTLGNIKSYPGLTSYLVRVVSTNYNQHAMVFFKKVSQNREYFKITLYGRTKELTSELKENFIRFSKSLGLPENHIVFPVPIDQCIDG
2 |  | ~0.4 | lipocalin mutein of SEQ ID NO: 2 (designed binder, hNGAL mutein specific for Ang-2, tested in monomeric form; also called positive control lipocalin mutein; Ang-2-specific lipocalin mutein in monomeric form) QDSTSDLIPAPPLSKVPLQQNFQDNQFHGKWYVVGQAGNYILREDKDPGKMWATIYELKEDKSYDVTEVSFGAKKCNYRIWTFVPGSQPGEFTLGGIKSDPGGTSTLVRVVSTNYNQHAMVFFKHVLQNREFFEITLYGRTKELTSELKENFIRFSKSLGLPENHIVFPVPIDQCIDG
3 |  | ~0.6 | lipocalin mutein of SEQ ID NO: 3 (designed binder, hNGAL mutein specific for Ang-2, tested in monomeric form; also called positive control lipocalin mutein; Ang-2-specific lipocalin mutein in monomeric form) QDSTSDLIPAPPLSKVPLQQNFQDNQFHGKWYVVGHAGNYILREDKDPGKMWATIYELKEDKSYDVTEVSFGPKKCNYRIWTFVPGSQPGEFTLGGIKSPPGGTSTLVRVVSTNYNQHAMVFFKHVLQNREFFEITLYGRTKELTSELKENFIRFSKSLGLPENHIVFPVPIDQCIDG
